Reference: PMC10821591

Target: GAP domain of human Ral GTPase Accelerating Protein α1 (residues 1807-1988) (human) (UniProt Q6GYQ0)
Assay: ITC; MicroCal iTC200, 20 °C; cell: RalGAPα1(GAP) 15 μM; syringe: MAF1 150 μM, 19 injections of 2 μl; 20 mM Hepes pH 7.5, 150 mM NaCl, 1 mM TCEP; one-site model

GAP domain of human Ral GTPase Accelerating Protein α1 (residues 1807-1988) (human), sequence (Q6GYQ0 1807-1988): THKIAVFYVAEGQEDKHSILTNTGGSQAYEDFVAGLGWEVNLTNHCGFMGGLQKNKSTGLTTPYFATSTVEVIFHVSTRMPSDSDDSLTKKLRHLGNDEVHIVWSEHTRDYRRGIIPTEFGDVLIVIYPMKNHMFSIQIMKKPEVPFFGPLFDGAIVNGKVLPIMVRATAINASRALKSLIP

Substance	Kd [nM]	dH [kcal/mol]	stoichiometry N
MAF1b STL-RKK (MAF1b 173-443, S438R/T439K/L441K) (domain or fragment)	518	–	–
T. gondii Mitochondrial Association Factor 1b, structured C-terminal domain (residues 173-443) (domain or fragment)	334	-14.6	1
